Holding throughout (test): SPR
Test [1] deals with T1, recombinant human haptoglobin β subunit (human, UniProt P00738 162-406).
T1 sequence (looked up): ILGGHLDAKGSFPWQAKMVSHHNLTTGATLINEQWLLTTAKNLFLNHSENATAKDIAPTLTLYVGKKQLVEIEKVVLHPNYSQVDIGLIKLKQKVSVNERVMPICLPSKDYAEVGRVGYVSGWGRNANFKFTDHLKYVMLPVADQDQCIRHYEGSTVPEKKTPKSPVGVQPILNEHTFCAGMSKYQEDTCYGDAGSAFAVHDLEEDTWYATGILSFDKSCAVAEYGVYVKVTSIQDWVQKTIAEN

Test [2] addresses T2, native human haptoglobin β subunit (human, UniProt P00738 162-406).
T2 sequence (looked up): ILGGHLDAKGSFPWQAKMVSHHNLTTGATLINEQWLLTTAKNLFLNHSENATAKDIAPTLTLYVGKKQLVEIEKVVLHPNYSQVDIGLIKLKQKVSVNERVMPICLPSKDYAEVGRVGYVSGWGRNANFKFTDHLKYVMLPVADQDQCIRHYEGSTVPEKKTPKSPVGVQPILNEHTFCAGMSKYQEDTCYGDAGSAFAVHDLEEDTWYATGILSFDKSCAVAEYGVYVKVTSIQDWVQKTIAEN

Test [3] addresses recombinant human CD163 protein (human, UniProt Q86VB7-1 42-1050).

The text below walks through data of PMC5477782 (Journal of internal medicine, 2017).

recombinant human CD163 protein, sequence (Q86VB7 42-1050): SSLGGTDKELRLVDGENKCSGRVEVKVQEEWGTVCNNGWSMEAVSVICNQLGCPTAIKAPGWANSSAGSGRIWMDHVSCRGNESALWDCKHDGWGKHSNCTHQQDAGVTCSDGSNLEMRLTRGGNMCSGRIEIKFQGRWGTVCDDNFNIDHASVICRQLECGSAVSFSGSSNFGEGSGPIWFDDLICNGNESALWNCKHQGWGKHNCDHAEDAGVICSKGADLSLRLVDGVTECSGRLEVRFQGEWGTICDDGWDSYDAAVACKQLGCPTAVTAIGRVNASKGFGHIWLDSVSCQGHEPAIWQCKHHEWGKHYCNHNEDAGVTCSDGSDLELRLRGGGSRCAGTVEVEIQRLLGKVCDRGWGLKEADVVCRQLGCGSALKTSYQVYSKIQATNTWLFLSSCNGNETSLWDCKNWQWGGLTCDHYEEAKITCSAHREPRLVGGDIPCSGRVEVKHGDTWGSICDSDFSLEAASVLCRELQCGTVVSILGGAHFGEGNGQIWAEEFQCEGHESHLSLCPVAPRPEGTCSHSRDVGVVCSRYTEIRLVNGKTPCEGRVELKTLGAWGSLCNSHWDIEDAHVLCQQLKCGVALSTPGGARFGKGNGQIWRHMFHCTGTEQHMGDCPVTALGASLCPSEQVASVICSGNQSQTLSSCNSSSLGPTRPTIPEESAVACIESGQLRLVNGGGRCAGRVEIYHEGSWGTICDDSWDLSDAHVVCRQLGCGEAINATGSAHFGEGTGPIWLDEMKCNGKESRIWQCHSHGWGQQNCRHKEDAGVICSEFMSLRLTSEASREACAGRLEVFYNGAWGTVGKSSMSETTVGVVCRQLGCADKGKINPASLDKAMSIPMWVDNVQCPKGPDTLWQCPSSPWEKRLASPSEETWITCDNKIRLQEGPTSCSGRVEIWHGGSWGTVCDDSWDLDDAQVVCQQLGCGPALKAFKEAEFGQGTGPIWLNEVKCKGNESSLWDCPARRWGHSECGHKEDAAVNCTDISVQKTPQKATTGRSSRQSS

B1: recombinant disulfide HMGB1 (natural protein, UniProt P09429 1-215, looked up)
chain: MGKGDPKKPRGKMSSYAFFVQTCREEHKKKHPDASVNFSEFSKKCSERWKTMSAKEKGKFEDMAKADKARYEREMKTYIPPKGETKKKFKDPNAPKRPPSAFFLFCSEYRPKIKGEHPGLSIGDVAKKLGEMWNNTAADDKQPYEKKAAKLKEKYEKDIAAYRAKGKPDAAKKGVVKAEKSKKKKEEEEDEEDEEDEEEEEDEEDEDEEEDDDDE
modifications: disulfide redox form (cysteines not named)
For B1, the Kd in test [1] stood at 29 nM; in test [2], 30 nM.

B2: HMGB1-haptoglobin β complexes (1:1 molar ratio) (complex)
chain 1: MGKGDPKKPRGKMSSYAFFVQTCREEHKKKHPDASVNFSEFSKKCSERWKTMSAKEKGKFEDMAKADKARYEREMKTYIPPKGETKKKFKDPNAPKRPPSAFFLFCSEYRPKIKGEHPGLSIGDVAKKLGEMWNNTAADDKQPYEKKAAKLKEKYEKDIAAYRAKGKPDAAKKGVVKAEKSKKKKEEEEDEEDEEDEEEEEDEEDEDEEEDDDDE
chain 2: ILGGHLDAKGSFPWQAKMVSHHNLTTGATLINEQWLLTTAKNLFLNHSENATAKDIAPTLTLYVGKKQLVEIEKVVLHPNYSQVDIGLIKLKQKVSVNERVMPICLPSKDYAEVGRVGYVSGWGRNANFKFTDHLKYVMLPVADQDQCIRHYEGSTVPEKKTPKSPVGVQPILNEHTFCAGMSKYQEDTCYGDAGSAFAVHDLEEDTWYATGILSFDKSCAVAEYGVYVKVTSIQDWVQKTIAEN
Turning to B2, the dissociation constant Kd in test [3] came out at 70 nM.
